{
  "source": "paper PMC8488679",
  "key": {"[1]": {"target": "cytochrome c oxidase (COX), monomeric (bovine (endogenous in bovine heart mitochondria)) (UniProt P68530)", "sequence (P68530 whole entry, looked up)": "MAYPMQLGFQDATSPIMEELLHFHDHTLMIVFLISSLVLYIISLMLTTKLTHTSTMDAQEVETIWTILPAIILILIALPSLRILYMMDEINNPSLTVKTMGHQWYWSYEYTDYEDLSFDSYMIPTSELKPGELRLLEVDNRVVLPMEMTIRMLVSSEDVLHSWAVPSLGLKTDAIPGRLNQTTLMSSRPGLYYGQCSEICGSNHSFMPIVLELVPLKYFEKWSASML", "assay": "complexome profiling"}, "[2]": {"target": "Apoptosis-inducing factor 1 (AIFM1) (bovine (endogenous in bovine heart mitochondria))", "assay": "complexome profiling"}},
  "data": [
    {"substance": "Apoptosis-inducing factor 1 (AIFM1) (natural protein)", "values": [
      {"measurement": "percent of monomeric COX engaged in the complex", "setting": "[1]", "value": 10, "unit": "%"},
      {"measurement": "stoichiometry N", "setting": "[2]", "value": 2}
    ]}
  ]
}
